Measured values as given in US20110257102A1 (CASE WESTERN RESERVE UNIVERSITY, published 2011).
Several values for one entry are separate records, joined by “and”; a condition that tells them apart may be missing. Equal values may be shown once.

B1: GST-tagged FLNa domain 10 (other)
chain: VPCFDASKVKCSGPGLERATAGEVGQFQVDCSSAGSAELTIEICSEAGLPAEVYIQDHGDGTHTITYIPLCPGAYTVTIKYGGQPVPNFPSKLQV
notes: domain: domain 10
B2: GST-tagged FLNa domain 17 (other)
chain: DYVNCGHVTAYGPGLTHGVVNKPATFTVNTKDAGEGGLSLAIEGPSKAEISCTDNQDGTCSVSYLPVLPGDYSILVKYNEQHVPGSPFTA
notes: domain: domain 17
B3: GST-tagged FLNa domain 18 (other)
chain: RVTGDDSMRMSHLKVGSAADIPINISETDLSLLTATVVPPSGREEPCLLKRLRNGHVGISFVPKETGEHLVHVKKNGQHVASSPIPVVI
notes: domain: domain 18
B4: GST-tagged FLNa domain 20 (other)
chain: VKVTGEGRVKESITRRRRAPSVANVGSHCDLSLKIPEISIQDMTAQVTSPSGKTHEAEIVEGENHTYCIRFVPAEMGTHTVSVKYKGQHVPGSPFQFTV
notes: domain: domain 20
B5: GST-tagged FLNa domain 21 (other)
chain: LGEGGAHKVRAGGPGLERAEAGVPAEFSIWTREAGAGGLAIAVEGPSKAEISFEDRKDGSCGVAYVVQEPGDYEVSVKFNEEHIPDSPFVVPV
notes: domain: domain 21
B6: GST-tagged FLNa domain 23 (other)
chain: GHGGDPGLVSAYGAGLEGGVTGNPAEFVVNTSNAGAGALSVTIDGPSKVKMDCQECPEGYRVTYTPMAPGSYLISIKYGGPYHIGGSPFKAKV
notes: domain: domain 23
B7: GST-tagged FLNa domain 11 (other)
chain: EPAVDTSGVQCYGPGIEGQGVFREATTEFSVDARALTQTGGPHVKARVANPSGNLTETYVQDRGDGMYKVEYTPYEEGLHSVDVTYDGSPVPSSPFQVPV
notes: domain: domain 11
B8: GST-tagged FLNa domain 19 (other)
chain: SEIGDASRVRVSGQGLHEGHTFEPAEFIIDTRDAGYGGLSLSIEGPSKVDINTEDLEDGTCRVTYCPTEPGNYIINIKFADQHVPGSPFS
notes: domain: domain 19
B9: GST-tagged FLNa domain 22 (other)
chain: SPSGDARRLTVSSLQESGLKVNQPASFAVSLNGAKGAIDAKVHSPSGALEECYVTEIDQDKYAVRFIPRENGVYLIDVKFNGTHIPGSPFKIRV
notes: domain: domain 22
B10: GST-tagged FLNa domain 24 (other)
chain: PGPADASKVVAKGLGLSKAYVGQKSSFTVDCSKAGNNMLLVGVHGPRTPCEEILVKHVGSRLYSVSYLLKDKGEYTLVVKWGDEHIPGSPYRVVVP
notes: domain: domain 24

These molecules were tested against recombinant pro-PrP^23-253 (human, UniProt P04156 23-253) (assay: in vitro pull-down with mAb 8H4 and protein G beads, anti-GST immunoblot).

Row | Molecule | binding result
1 | B1 | binds
2 | B2 | binds
3 | B3 | binds
4 | B4 | binds
5 | B5 | binds
6 | B6 | binds
7 | B7 | no binding
8 | B8 | no binding
9 | B9 | no binding
10 | B10 | no binding

These molecules were tested against filamin A (FLNa) of human tumour cell lines (endogenous) (human) (UniProt P21333) (assay: cell-based or functional assay).

Row | Molecule | inhibition of cellular motility of A7 cells (wound-healing assay)
11 | KKRPK-PrP-GPI-PSS synthetic peptide | 50% and 60%
